Test results published in US5705398A, “Methods for identifying inhibitors of LPS-mediated LBP binding” (The Scripps Research Institute, priority 1994, dated 1998).

T1: CD14 (Homo sapiens, UniProt P08571)
T1 construct: made in house; host or cells: CHO cells (clone 523, vector pEE14), secreted into culture medium
T1 sequence (P08571 20-375): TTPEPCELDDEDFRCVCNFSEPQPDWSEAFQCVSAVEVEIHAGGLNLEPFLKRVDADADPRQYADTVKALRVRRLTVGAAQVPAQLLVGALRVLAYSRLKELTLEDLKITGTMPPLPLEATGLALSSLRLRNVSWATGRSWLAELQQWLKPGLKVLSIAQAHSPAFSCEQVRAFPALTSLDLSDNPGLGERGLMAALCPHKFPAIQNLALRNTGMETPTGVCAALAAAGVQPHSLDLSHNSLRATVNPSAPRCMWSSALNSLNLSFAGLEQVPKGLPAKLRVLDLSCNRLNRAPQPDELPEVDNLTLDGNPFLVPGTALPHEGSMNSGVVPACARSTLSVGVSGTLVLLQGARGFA

T2: LPS-Binding Protein (LBP) (Oryctolagus cuniculus, UniProt P17454)
T2 construct: isolated from acute phase rabbit serum; from tissue; host or cells: acute phase rabbit serum
T2 sequence (P17454 27-482): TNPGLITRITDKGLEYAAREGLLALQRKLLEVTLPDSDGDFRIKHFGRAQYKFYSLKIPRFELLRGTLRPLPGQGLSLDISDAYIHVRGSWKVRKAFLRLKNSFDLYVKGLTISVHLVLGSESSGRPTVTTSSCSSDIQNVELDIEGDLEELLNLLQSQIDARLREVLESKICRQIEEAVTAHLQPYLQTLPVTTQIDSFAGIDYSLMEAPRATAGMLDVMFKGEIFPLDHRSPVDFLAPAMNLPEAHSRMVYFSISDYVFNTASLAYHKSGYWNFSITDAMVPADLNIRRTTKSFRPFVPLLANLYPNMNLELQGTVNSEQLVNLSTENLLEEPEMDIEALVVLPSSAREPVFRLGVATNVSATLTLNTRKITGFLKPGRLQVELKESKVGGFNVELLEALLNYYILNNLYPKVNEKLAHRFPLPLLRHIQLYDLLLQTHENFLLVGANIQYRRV

T3: recombinant human soluble CD14 (Homo sapiens, UniProt P08571)
T3 construct: made in house; host or cells: CHO cells (clone 523, vector pEE14), secreted into culture medium
T3 sequence (P08571 20-375): T1 sequence (P08571 20-375)

B1: LBP: LPS binding protein isolated from acute phase rabbit serum (protein, UniProt P17454 27-482, looked up)
Lipopolysaccharide-binding …: T2 sequence (P17454 27-482)

Tests used:
[1] = target: T1, CD14; assay: Competition of non-fluoresceinated LPS with F-LPS in LBP/CD14 binding assay; conditions: similar to FIG. 3 with Re595 LPS
[2] = target: T1, CD14; assay: Fluorescence spectroscopy assay of F-LPS binding to soluble CD14 in presence of LBP, with peptides; conditions: for fluorescence intensity, +CD14: 10 ug/ml soluble CD14 added before LBP, no-peptide control 1500; for fluorescence intensity, +LBP: F-LPS + polypeptide + 10 ug/ml sCD14 + 40 ng/ml rabbit LBP, no-peptide control 6300; for inhibition of fluorescence of F-LPS / LPS binding to LBP in presence of LBP and CD14 (in words): from Table 4
Protocol: (§1) The fluorescence spectroscopy assay method also detects the intensity of fluorescence of fluoresceinated LPS in the presence of LBP and soluble CD14.
(§2) The assay to measure binding interactions between CD14 and LPS or LPS-LBP complex was conducted essentially as described in Example 1 with the following exceptions. First, the amount of rabbit LBP in the reaction admixture was 40 ng/ml. Second, soluble CD14 (sCD14) prepared as described in Example 2A was added to the reaction admixture at a concentration of 10 ug/ml prior to addition of the LBP to the reaction admixture. Peptides 6, 7 and 8, whose sequences are shown in Table 2, were each separately added to assay reaction admixtures, and the resulting FI was measured.

[3] = system: Human CD14; assay: as above; conditions: for fluorescence intensity, +peptide (F-LPS+peptide): F-LPS + polypeptide, before CD14 and LBP; for fluorescence intensity, +F-LPS (F-LPS alone): before peptide addition (baseline of the run)
Protocol: as §1, §2

[4] = target: T2, LPS-Binding Protein (LBP); assay: Fluorescence spectroscopy assay of F-LPS binding to LBP; set-up: species or system rabbit; conditions: for fluorescence intensity, +LBP (F-LPS+peptide+LBP): 10 ng/ml F-LPS + 1 mM polypeptide + 1 ug/ml rabbit LBP, no-peptide control 2700 (Experiment A, peptides 1-4), 2300 (Experiment B, peptides 5-8); for fluorescence intensity, +peptide (F-LPS+peptide): 10 ng/ml F-LPS + 1 mM polypeptide, before LBP; for fluorescence intensity, +F-LPS (F-LPS alone): 10 ng/ml F-LPS in PBS/2 mM EDTA pH 7.4, before peptide addition (baseline of the run); for inhibition of LPS binding to LBP (in words): 1 mM polypeptide, from Table 3
Protocol: The fluorescence spectroscopy assay method detects the intensity of fluorescence of fluoresceinated LPS in the presence of LBP.
The assay reaction admixture was prepared by admixing 10 ng/ml F-LPS and 1 ug/ml rabbit LBP into a solution of phosphate buffered saline (PBS) containing 2 mM EDTA, pH 7.4. The FI was then measured with an SLM 8000 photon counting spectrophotometer (SLM, Urbana, Ill.). A continuous FI output was measured over time while first the F-LPS was added to the PBS/EDTA solution, and then the LBP was added.
To study the effect of an LBP-derived polypeptide upon the effect of LBP on the FI of F-LPS, a polypeptide was added to the assay admixture at a concentration of 1 mM polypeptide prior to the addition of LBP, which was typically added about 30 to 150 seconds after the polypeptide was added to the admixture.

[5] = target: T3, recombinant human soluble CD14; assay: F-LPS/CD14 fluorescence assay comparing LBP with other LPS-binding proteins; conditions: 20 ng/ml F-LPS; for effect on FI of F-LPS with CD14 when replacing LBP: protein 300 ng/ml, CD14 0 to 10 ug/ml
Protocol: For the assay, LBP or the other known LPS-binding proteins were added to the admixture at a concentration of 300 nanograms/milliliter (ng/ml) and were separately admixed with varying amounts the recombinant human soluble CD14 ranging in concentration from 0 to 10 micrograms/milliliter (ug/ml).
To this admixture, 20 ng/ml of F-LPS prepared in Example 1 were admixed to form a binding admixture. Fluorescence measurements were then performed as described above to determine the effect of LBP and CD14 on the FI of F-LPS.

Molecule	fluorescence intensity, +LBP (F-LPS+peptide+LBP) [4] [FIU]	fluorescence intensity, +peptide (F-LPS+peptide) [4] [FIU]	fluorescence intensity, +F-LPS (F-LPS alone) [4] [FIU]	inhibition of LPS binding to LBP (in words) [4]	further results
CCCCCCCCCCC[C@@H](O)CC(=O)N[C@H]1[C@H](OC[C@H]2O[C@H](OP(=O)(O)O)[C@H](NC(=O)C[C@H](O)CCCCCCCCCCC)[C@@H](OC(=O)C[C@H](O)CCCCCCCCCCC)[C@@H]2O)O[C@H](CO)[C@@H](OP(=O)(O)O)[C@@H]1OC(=O)C[C@H](O)CCCCCCCCCCC [lipid IVa]					inhibition of FI increase by non-fluoresceinated LPS preparations (in words) [1]: dose dependent inhibition
ATLTLNTRKIT [Peptide 7]	1300	1600	800	strongly inhibit LPS binding to LBP	fluorescence intensity, +CD14 [2]: 2000 FIU; fluorescence intensity, +LBP [2]: 1500 FIU; inhibition of fluorescence of F-LPS / LPS binding to LBP in presence of LBP and CD14 (in words) [2]: strongly inhibit LPS binding to LBP; fluorescence intensity, +peptide (F-LPS+peptide) [3]: 2400 FIU; fluorescence intensity, +F-LPS (F-LPS alone) [3]: 1200 FIU
CSSDIQNVELDIEGDLEELLNLLQSQIDARLREVLESKI [Peptide 3]	2100	1300	800	weakly inhibit LPS binding to LBP	
GIDYSLMEAPRATA [Peptide 5]	2000	750	750		
KVRKAFLRLKNSFDL [Peptide 2]	800	800	900	strongly inhibit LPS binding to LBP	
LQPYLQTLPVTTQIDS [Peptide 4]	2300	900	800		
PSSAREPVFRLGVAT [Peptide 6]	1500	800	750	strongly inhibit LPS binding to LBP	fluorescence intensity, +CD14 [2]: 1300 FIU; fluorescence intensity, +LBP [2]: 3500 FIU; inhibition of fluorescence of F-LPS / LPS binding to LBP in presence of LBP and CD14 (in words) [2]: strongly inhibit LPS binding to LBP; fluorescence intensity, +peptide (F-LPS+peptide) [3]: 1300 FIU; fluorescence intensity, +F-LPS (F-LPS alone) [3]: 1200 FIU
QTHENFLLVGANIQYRRV [Peptide 8]	2300	800	700		fluorescence intensity, +CD14 [2]: 1500 FIU; fluorescence intensity, +LBP [2]: 5400 FIU; fluorescence intensity, +peptide (F-LPS+peptide) [3]: 1400 FIU; fluorescence intensity, +F-LPS (F-LPS alone) [3]: 1400 FIU
TNPGLITRITDKGL [Peptide 1]	2400	900	900		
apotransferrin					effect on FI of F-LPS with CD14 when replacing LBP [5]: no effect was detected
lipid A [synthetic lipid A]					inhibition of FI increase by non-fluoresceinated LPS preparations (in words) [1]: dose dependent inhibition
lysozyme					effect on FI of F-LPS with CD14 when replacing LBP [5]: no effect was detected
B1					maximum FI ([5]; LBP 300 ng/ml, plateau at CD14 about 10 ug/ml): greater than 90,000 fluorescence units
